Assay results taken from US11542537B2, “High-purity steviol glycosides” (PureCircle Sdn Bhd, priority 2012, dated 2023).

Legend:
Format in all cases: biochemical
[1] = Activity for Rubusoside to Rebaudioside E conversion (UGTSL, UGTSL2, UGTLB lysates); conditions: based on initial concentration of Rubusoside; reaction time 45 h. (UGTSL), 2 h. (UGTSL2)
Description: Activity tests were performed at 3 mL scale with 600 μL of lysate for the transformation of Rubusoside using 0.5 mM of substrate, 2.5 mM of UDP-Glucose and 3 mM MgCl2 in 50 mM Sodium Phosphate buffer at pH 7.2. The HPLC assay was performed as described in EXAMPLE 20.
Activity tests were performed at 3 mL scale with 600 μL of lysate for the transformation of Rubusoside using 0.5 mM of substrate, 2.5 mM of UDP-Glucose and 3 mM MgCl2 in 50 mM Sodium Phosphate buffer at pH 7.2. Samples were taken and analyzed by HPLC. The corresponding chromatogram is depicted in FIG. 65.

[2] = LC-MS of Rebaudioside A reaction mixtures of GI No. 460409128 (Example 23); conditions: for Steviol glycoside conversion in reaction mixture: Reb A: remaining substrate
Description: The reaction mixtures representing GI No. 460409128, particularly the sample “12400 S115N05A7 T24h 130627ABA” of EXAMPLE 20 (hereinafter S115N05A7), and the sample “12400 S129N04 T45h 130712ABA” of EXAMPLE 22 (hereinafter S129N04) were additionally assayed by LC-MS to identify the unknown glycosides. An Agilent 1200 series HPLC system, equipped with binary pump (G1312B), autosampler (G1367D), thermostatted column compartment (G1316B), DAD detector (G1315C), connected with Agilent 6110A MSD, and interfaced with “LC/MSD Chemstation” software, was used.

[3] = LCMS of Stevioside conversion products with UGTSL, UGTSL2, UGTLB; conditions: UGTSL2 2 hrs, UGTLB 2 hrs, UGTSL 22 hrs
Description: (§1) Conversion of stevioside with UGTSL and UGTSL2 was conducted in similar manner to Example 28, and the conversion of rubusoside with UGTSL and UGTSL2 was conducted similarly to Example 29. Conversions of rubusoside and stevioside with UGTLB was conducted similarly to Example 32.
(§2) The reaction mixtures were analyzed by LCMS to determine all reaction products.

[4] = Catalytic test of in-vitro expressed UDP-glucosyltransferases, Rebaudioside A to Rebaudioside D (HPLC CAD); conditions: 0.5 mM Rebaudioside A, 30° C., T24h sample; for Steviol glycoside conversion in reaction mixture: Reb UNK: Reb UNK later identified as reb D2; for Steviol glycoside conversion in reaction mixture: Reb A: remaining substrate
Description: 18 μL of plasmid solution (containing approximately 1.5 μg of plasmid) was used for in-vitro expression according to the Promega S30 T7 High-Yield Protein Expression System (ref: L1110) kit. The expression medium was produced as follows:
The prepared expression medium mix was added to the plasmid solution and the solution was allowed to incubate at 30° C. for 3 hours while mixing the mixture every 45 minutes. 5 μL of the mixture was frozen whereas the remainder was used for the catalytic test for the conversion of Rebaudioside A to Rebaudioside D.
(§3) 430 μL of a reaction mixture containing 0.5 mM Rebaudioside A, 3 mM MgCl2, 50 mM phosphate buffer (pH7.2) and 2.5 mM UDP-glucose was added to a 1.5 mL sterile microtube. 52 μL of the enzyme expression medium was added and the resulting mixture was allowed to react at 30° C. for 24 hours. 125 μL samples were taken after 2 hours, 16 hours and 24 hours and added to a 115 μL of 60% methanol and 10 μL of 2 N H2SO4. The quenched sample was centrifuged at 18,000 g for 2 minutes at RT. 200 μL was transferred to an HPLC vial and analyzed.
The HPLC assay was performed as follows:
as §3, with “RT.” for “RT. 200 μL was transferred to an HPLC vial and analyzed.”
The HPLC assay was performed as described in EXAMPLE 20.

[5] = LCMS of Rubusoside conversion products with UGTSL, UGTSL2, UGTLB; conditions: UGTSL2 2 hrs, UGTLB 5 hrs, UGTSL 45 hrs
Description: as §1, §2

Molecule	Rubusoside conv. (reactiontime) [1]	LC-MS, peak area ratio (%) Reb D [3]	LC-MS, peak area ratio (%) Reb E [3]	LC-MS, peak area ratio (%) Stev [3]	LC-MS, peak area ratio (%) Unknown peak #1 (MW966) RT = 22.60 min [3]	LC-MS, peak area ratio (%) Unknown peak #2 (MW966) RT = 26.50 min [3]	Steviol glycoside conversion in reaction mixture: Reb UNK [4]	Steviol glycoside conversion in reaction mixture: Reb A [4]	LC-MS, peak area ratio (%) Reb D [5]	LC-MS, peak area ratio (%) Reb E [5]	LC-MS, peak area ratio (%) Rub [5]	LC-MS, peak area ratio (%) Stev [5]	LC-MS, peak area ratio (%) Unknown peak #1 (MW804) RT 30.70 min [5]	LC-MS, peak area ratio (%) Unknown peak #2 (MW804) RT 49.50 min [5]	LC-MS, peak area ratio (%) Unknown peak #3 (MW804) RT 50.40 min [5]	Steviol glycoside conversion in reaction mixture: Reb D [4]	further results
S115N05 A7: UGTSL, Solanum lycopersicum glycosyltransferase, SEQ ID 5; S129N04 is the sample of the in-vivo produced enzyme (protein, listed as Solanum lycopersicum) MSPKLHKELFFHSLYKKTRSNHTMATLKVLMFPFLAYGHISPYLNVAKKLADRGFLIYFCSTPINLKSTIEKIPEKYADSIHLIELHLPELPQLPPHYHTTNGLPPNLNQVLQKALKMSKPNFSKILQNLKPDLVIYDILQRWAKHVANEQNIPAVKLLTSGAAVFSYFFNVLKKPGVEFPFPGIYLRKIEQVRLSEMMSKSDKEKELEDDDDDDDLLVDGNMQIMLMSTSRTIEAKYIDFCTALTNWKVVPVGPPVQDLITNDVDDMELIDWLGTKDENSTVFVSFGSEYFLSKEDMEEVAFALELSNVNFIWVARFPKGEERNLEDALPKGFLERIGERGRVLDKFAPQPRILNHPSTGGFISHCGWNSAMESIDFGVPIIAMPMHLDQPMNARLIVELGVAVEIVRDDDGKIHRGEIAETLKGVITGKTGEKLRAKVRDISKNLKTIRDEEMDAAAEELIQLCRNGN	70% (45 h.)	0.54%	49.68%	25.24%	3.97%	20.56%	23.3 % area	46.7 % area	3.45%	35.88%	7.82%	2.37%	20.38%	27.75%	2.35%	–	Steviol glycoside conversion in reaction mixture: Reb UNK ([2]; Reb UNK later identified as reb D2, listed as S115N05A7): 19.93 % area; Steviol glycoside conversion in reaction mixture: Reb UNK ([2]; Reb UNK later identified as reb D2, listed as S129N04): 21.22 % area; Steviol glycoside conversion in reaction mixture: Reb D ([2]; listed as S115N05A7): 20.35 % area; Steviol glycoside conversion in reaction mixture: Reb D ([2]; listed as S129N04): 23.73 % area; Steviol glycoside conversion in reaction mixture: Reb A ([2]; listed as S115N05A7): 53.24 % area; Steviol glycoside conversion in reaction mixture: Reb A ([2]; listed as S129N04): 49.00 % area; Steviol glycoside conversion in reaction mixture: Unknown@RT3.5 ([2]; unknown later identified as reb M2, listed as S115N05A7): 6.47 % area; Steviol glycoside conversion in reaction mixture: Unknown@RT3.5 ([2]; unknown later identified as reb M2, listed as S129N04): 6.05 % area
S115N06 E1: hypothetical protein OsJ_04191, Oryza sativa Japonica Group, SEQ ID 6 (protein, listed as Oryza sativa) MHVVMLPWLAFGHILPFAEFAKRVARQGHRVTLFSTPRNTRRLIDVPPSLAGRIRVVDIPLPRVEHLPEHAEATIDLPSNDLRPYLRRAYDEAFSRELSRLLQETGPSRPDWVLADYAAYWAPAAASRHGVPCAFLSLFGAAALCFFGPAETLQGRGPYAKTEPAHLTAVPEYVPFPTTVAFRGNEARELFKPSLIPDESGVSESYRFSQSIEGCQLVAVRSNQEFEPEWLELLGELYQKPVIPIGMFPPPPPQDVAGHEETLRWLDRQEPNSVVYAAFGSEVKLTAEQLQRIALGLEASELPFIWAFRAPPDAGDGDGLPGGFKERVNGRGVVCRGWVPQVKFLAHASVGGFLTHAGWNSIAEGLANGVRLVLLPLMFEQGLNARQLAEKKVAVEVARDEDDGSFAANDIVDALRRVMVGEEGDEFGVKVKELAKVFGDDEVNDRYVRDFLKCLSEYKMQRQG	–	–	–	–	–	–	7.0 % area	92.8 % area	–	–	–	–	–	–	–	0.14 % area	–
S115N06 C2: UDP-glucoronosyl/UDP-glucosyl transferase family protein, Arabidopsis lyrata subsp. lyrata, SEQ ID 7 (protein, listed as Arabidopsis lyrata) MDDKKEEVMHIAMFPWLAMGHLLPFLRLSKLLAQKGHKISFISTPRNILRLPKLPSNLSSSITFVSFPLPSISGLPPSSESSMDVPYNKQQSLKAAFDLLQPPLTEFLRLSSPDWIIYDYASHWLPSIAKELGISKAFFSLFNAATLCFMGPSSSLIEESRSTPEDFTVVPPWVPFKSTIVFRYHEVSRYVEKTDEDVTGVSDSVRFGYTIDGSDAVFVRSCPEFEPEWFSLLQDLYRKPVFPIGFLPPVIEDDDDDTTWVRIKEWLDKQRVNSVVYVSLGTEASLRREELTELALGLEKSETPFFWVLRNEPQIPDGFEERVKGRGMVHVGWVPQVKILSHESVGGFLTHCGWNSVVEGIGFGKVPIFLPVLNEQGLNTRLLQGKGLGVEVLRDERDGSFGSDSVADSVRLVMIDDAGEEIREKVKLMKGLFGNMDENIRYVDELVGFMRNDESSQLKEEEEEDDCSDDQSSEVSSETDEKELNLDLKEEKRRISVYKSLSSEFDDYVANEKMG	–	–	–	–	–	–	3.9 % area	95.8 % area	–	–	–	–	–	–	–	0.28 % area	–
UGTSL2: Solanum lycopersicum UDP-glucosyltransferase GI_460410132, SEQ ID 9, E. coli lysate (protein, listed as Escherichia coli) MATNLRVLMFPWLAYGHISPFLNIAKQLADRGFLIYLCSTRINLESIIKKIPEKYADSIHLIELQLPELPELPPHYHTTNGLPPHLNPTLHKALKMSKPNFSRILQNLKPDLLIYDVLQPWAEHVANEQNIPAGKLLTSCAAVFSYFFSFRKNPGVEFPFPAIHLPEVEKVKIREILAKEPEEGGRLDEGNKQMMLMCTSRTIEAKYIDYCTELCNWKVVPVGPPFQDLITNDADNKELIDWLGTKHENSTVFVSFGSEYFLSKEDMEEVAFALELSNVNFIWVARFPKGEERNLEDALPKGFLERIGERGRVLDKFAPQPRILNHPSTGGFISHCGWNSAMESIDFGVPIIAMPIHNDQPINAKLMVELGVAVEIVRDDDGKIHRGEIAETLKSVVTGETGEILRAKVREISKNLKSIRDEEMDAVAEELIQLCRNSNKSK	80% (2 h.)	1.70%	42.56%	20.01%	4.48%	5.56%	–	–	6.73%	52.88%	3.54%	2.12%	12.02%	9.94%	12.77%	–	LC-MS, peak area ratio (%) Unknown peak #3 (MW966) RT = 29.50 min [3]: 25.70%
